The values that follow come from patent publication US7799901B2, “Modulators of the function of FAS receptors and other proteins” (Yeda Research and Development Co. Ltd., priority 1995, dated 2010).

Data set [1] deals with T1, MORT1DD (130-245) (Homo sapiens, UniProt Q13158).
T1 construct: 130-245 MORT-1; expressed in transfected cells
T1 sequence (Q13158 82-197): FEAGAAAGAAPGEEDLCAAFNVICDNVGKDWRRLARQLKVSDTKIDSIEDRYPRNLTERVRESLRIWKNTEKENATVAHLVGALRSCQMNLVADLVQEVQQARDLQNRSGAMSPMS
Description: Two-hybrid β-galactosidase expression filter assay in SFY526 yeast, DNA-binding domain hybrid MORT1DD (130-245). From the text:
(§1) To isolate proteins interacting with the intracellular domain of the FAS-R, the yeast two-hybrid system was used (Fields and Song, 1989). […] In this system, the genes for the candidate interacting proteins are cloned into separate expression vectors. In one expression vector, the sequence of the one candidate protein is cloned in phase with the sequence of the GAL4 DNA-binding domain to generate a hybrid protein with the GAL4 DNA-binding-domain, and in the other vector, the sequence of the second candidate protein is cloned in phase with the sequence of the GAL4 activation domain to generate a hybrid protein with the GAL4-activation domain. The two hybrid vectors are then co-transformed into a yeast host strain having a lacZ or HIS3 reporter gene under the control of upstream GAL4 binding sites. […]
(§2) The yeast two-hybrid test was further applied to evaluate the specificity of binding of MACH to MORT-1, in particular, to define the region in MORT-1 to which MACH binds, as well as to determine which of the MACH ORFs interacts with MORT-1, the procedures being as set forth herein above in Examples 1 and 2. Briefly, various MORT-1 and MACH constructs were prepared for testing the interaction of the proteins encoded by the Gal4 DNA-binding domain and activation domain constructs within transfected SFY526 yeast cells as assessed by the β-galactosidase expression filter assay. […]

Data set [2] deals with Lamin. Description: Two-hybrid β-galactosidase expression filter assay in SFY526 yeast, DNA-binding domain hybrid Lamin. The note with it: specificity test.
Excerpt: as §1, §2

The target of data set [3] is T2, human p75 IC (Homo sapiens, UniProt P20333).
T2 construct: residues 287-461 of the intracellular domain of the human p75 TNF-R; expressed in transfected cells; host or cells: SFY526 yeast
T2 sequence (P20333 287-461): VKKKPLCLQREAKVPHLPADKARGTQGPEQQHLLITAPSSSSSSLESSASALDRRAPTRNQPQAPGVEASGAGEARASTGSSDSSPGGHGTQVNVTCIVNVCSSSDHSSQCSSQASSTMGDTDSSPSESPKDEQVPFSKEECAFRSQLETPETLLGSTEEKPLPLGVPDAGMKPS
Put plainly: Two-hybrid β-galactosidase expression filter assay in SFY526 yeast, DNA-binding domain hybrid human p75 IC. The note with it: specificity test.
Excerpt: as §1, §2

For data set [4], the target named is T3, human FAS DD (Homo sapiens, UniProt P25445).
T3 construct: the ‘death domain’ region of the intracellular domain of the human Fas-R (human Fas DD); expressed in transfected cells; host or cells: SFY526 yeast
T3 sequence (P25445 230-314 limits assumed): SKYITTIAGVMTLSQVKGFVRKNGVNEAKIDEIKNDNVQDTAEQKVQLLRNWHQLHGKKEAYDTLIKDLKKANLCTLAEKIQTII
Put plainly: Two-hybrid β-galactosidase expression filter assay in SFY526 yeast, DNA-binding domain hybrid human FAS DD. The note with it: specificity test.
Excerpt: as §1, §2

Data set [5] deals with T4, human CD40 IC (Homo sapiens, UniProt P25942).
T4 construct: residues 216-277 of the intracellular domain of the human CD40; expressed in transfected cells; host or cells: SFY526 yeast
T4 sequence (P25942 216-277): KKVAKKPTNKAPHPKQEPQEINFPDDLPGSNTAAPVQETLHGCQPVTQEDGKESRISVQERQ
Put plainly: Two-hybrid β-galactosidase expression filter assay in SFY526 yeast, DNA-binding domain hybrid human CD40 IC. The following applies: specificity test.
Excerpt: as §1, §2

Data set [6] can be described thus: Two-hybrid β-galactosidase expression filter assay in SFY526 yeast, empty pGBT9 vector. It counts as binding. The following applies: negative control bait.
Excerpt: as §1, §2

Data set [7] has as its system HeLa cells. Put plainly: Ligand-independent cytocidal effect of MACH expression in HeLa cells, neutral red uptake. The note with it: 48 hrs. after transfection, FIG. 6. It counts as cell-based, human. The procedure:
In order to test this possibility, constructs encoding MACH were prepared with a tetracycline-controlled expression vector (for details see Example 1). These constructs were used to transfect HeLa cells in which the vectors were transiently expressed. Besides the MACH constructs, other control constructs were used to evaluate the effect of transient expression on the viability of the HeLa cells to which the effect of the MACH constructs could be compared. These other constructs included MORT-1, human FAS-IC and luciferase (Luc). In addition, co-transfection of the HeLa cells was also tested by using MORT-1 and MACH constructs to determine what effects the interaction between these proteins would cause. After transfection the HeLa cells were incubated and cell viability was evaluated 48 hrs. after transfection either in the presence or the absence of tetracycline (1 μg/ml) to block expression. Cell viability was determined by the neutral red uptake assay.
The results are shown in FIG. 6, which depicts graphically the ligand-independent triggering of cytocidal effects in cells transfected with MACH in comparison to cells transfected with constructs encoding the other proteins as well as cotransfected cells (MORT1+MACH). […]

The target in data set [8] is T5, MORT-1 (Homo sapiens, UniProt Q13158, G32V).
T5 sequence (Q13158 with tags, fused parts or gaps G32V): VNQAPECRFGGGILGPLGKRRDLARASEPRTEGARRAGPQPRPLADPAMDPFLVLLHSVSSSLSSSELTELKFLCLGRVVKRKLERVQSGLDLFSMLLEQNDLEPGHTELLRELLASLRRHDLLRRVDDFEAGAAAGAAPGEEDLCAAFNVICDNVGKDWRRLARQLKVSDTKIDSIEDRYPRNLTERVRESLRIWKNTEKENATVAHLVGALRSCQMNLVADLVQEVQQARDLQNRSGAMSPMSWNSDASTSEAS
Put plainly: Two-hybrid β-galactosidase expression filter assay in SFY526 yeast, DNA-binding domain hybrid MORT-1. Further details: the full-length MORT-1 cDNA was used (MORT 1); expressed in transfected cells; host or cells: SFY526 yeast. The following applies: substance as activation domain hybrid.
Excerpt: as §1, with “sites. Only those transformed host cells (cotransformants) in which the two hybrid proteins are expressed and are capable of interacting with each other, will be capable of expressing the reporter gene.” for “sites.”
The yeast two-hybrid test was further applied to evaluate the specificity of binding of MACH to MORT-1, in particular, to define the region in MORT-1 to which MACH binds, as well as to determine which of the MACH ORFs interacts with MORT-1, the procedures being as set forth herein above in Examples 1 and 2. Briefly, various MORT-1 and MACH constructs were prepared for testing the interaction of the proteins encoded by the Gal4 DNA-binding domain and activation domain constructs within transfected SFY526 yeast cells as assessed by the β-galactosidase expression filter assay. […] In the assay, the development of color was determined, where the greater the color development, the greater the interaction between the constructs encoded by the DNA-binding domain and activation domain; Color development was depicted by symbols, where “+++” and “+” indicate the development of a strong color within 30 and 90 min. of the assay, respectively, and “−−−” indicates the lack of development of color within 24 hrs. of the assay. […]

B1: MACH: MORT-1 associated CED3 homolog; full-length MACH cDNA construct; protein later renamed MACHβ1 (protein)
chain: MDFSRNLYDIGEQLDSEDLASLKFLSLDYIPQRKQEPIKDALMLFQRLQEKRMLEESNLSFLKELLFRINRLDLLITYLNTRKEEMERELQTPGRAQISAYRVMLYQISEEVSRSELRSFKFLLQEEISKCKLDDDMNLLDIFIEMEKRVILGEGKLDILKRVCAQINKSLLKIINDYEEFSKERSSSLEGSPDEFSNDFGQSLPNEKQTSGILSDHQQSQFCKSTGESAQTSQH
Regarding B1, the “development of color (interaction with DNA-binding domain hybrid)” value in data set [1], in data set [2], in data set [3], in data set [4], in data set [5] and in data set [6] was “−−− (“−−−” indicates the lack of development of color within 24 hrs. of the assay)” throughout. The “development of color (interaction with DNA-binding domain hybrid)” value in data set [8] is “+++ (“+++” and “+” indicate the development of a strong color within 30 and 90 min. of the assay, respectively)”. Also, the “cytotoxic effect of induced overexpression in HeLa cells” value in data set [7] is on record as “dramatic cytotoxic effect”.
